Data: patent publication US20130142788A1 (published 2013)

Columns and labels:
[1] = biological target: T1, recombinant mature dimeric myostatin (human and mouse (mature sequences 100% …, UniProt O08689 268-376)); assay: cell-based or functional assay
T1 sequence: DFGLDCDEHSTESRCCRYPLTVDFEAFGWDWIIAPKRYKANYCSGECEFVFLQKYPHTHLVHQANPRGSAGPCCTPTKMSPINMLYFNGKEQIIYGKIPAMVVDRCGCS

[2] = biological target: T2, human myostatin pro-peptide dimer (human, UniProt O14793 25-266, limits assumed); assay: ELISA, antigen coated at 100 ng/well
T2 sequence: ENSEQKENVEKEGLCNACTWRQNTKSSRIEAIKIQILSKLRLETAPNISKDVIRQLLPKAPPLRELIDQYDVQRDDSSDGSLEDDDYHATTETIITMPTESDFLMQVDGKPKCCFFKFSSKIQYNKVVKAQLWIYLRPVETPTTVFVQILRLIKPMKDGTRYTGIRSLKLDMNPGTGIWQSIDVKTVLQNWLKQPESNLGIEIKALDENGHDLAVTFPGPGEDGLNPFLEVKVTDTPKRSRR
Protocol: The myostatin antigens were coated onto wells of an EIA/RIA plate (Costar) at 100 ng/well at 4° C. overnight in PBS, prior to blocking (PBS, 3% BSA) for 30 minutes at room temperature. Plates were washed (PBS, 1% BSA and 0.1% Tween20), prior to the addition of a dilution series of 10B3 in wash buffer and incubation for 2 hours at room temperature. Plates were again washed prior to addition of peroxidase-conjugated Affinipure F(ab′)2 fragment donkey anti-mouse IgG (Jackson Laboratories cat 715-036-151) diluted 1:10,000 in wash buffer and incubated for 1 hour at room temperature. A final wash step preceded addition of TMB substrate and colorimetric change which was stopped with Sulphuric acid and plates read at 450 nm.

[3] = biological target: T1, recombinant mature dimeric myostatin; assay: Kinexa solution phase affinity
Protocol: Kinexa (Sapidyne Instruments) solution phase affinity was used to determine the overall affinity for a range of anti-myostatin molecules. Myostatin beads were prepared either by adsorption (polymethylmethacrylate beads-PMMA) or amine coupling (NHS-activated sepharose beads). The range of anti-myostatin molecules studied necessitated the generation of beads coated with different concentrations of myostatin. For the solution phase portion of the assay, a fixed concentration of antibody was incubated with a broad range of myostatin concentrations and allowed to reach equilibrium by incubation at r.t. for at least 2 h before analysis proceeded. The myostatin beads were then used to determine the amount of free antibody present in the solution phase samples, by means of the free antibody binding to the myostatin bead matrix then detected using an appropriate secondary antibody (either anti-human or anti-mouse depending on the construct being tested) labelled with a fluorescent dye. The binding curves where fitted using the Kinexa Pro analysis software inherent to the machine. Multiple runs using varying starting concentrations of antibody were then compiled and analysed using the n-curve analysis software to give a more accurate determination of affinity.

[4] = biological target: T1, recombinant mature dimeric myostatin; assay: ActRIIb receptor binding assay: inhibition of biotinylated myostatin binding to coated ActRIIb
Protocol: (§1) Recombinant soluble ActRIIb (R&D Systems 339-RBB) was coated in wells of an ELISA plate at 1 μg/ml in carbonate buffer overnight at 4° C. Plates were blocked (see Block solution above at 2.3) and washed following standard ELISA protocols. In parallel, 2 nM biotinylated myostatin (in-house, as described in 1.1, biotinylated material) was pre-incubated with an antibody dilution series consisting of 10B3, 10B3C, and a negative control (IgG1 isotype control) for 2 hours at 37° C. The biotinylated myostatin:antibody reactions were then added to the ActRIIb coated plate for 1 hour at 37° C. Standard wash procedures were followed prior to addition of 1:1000 diluted streptavidin-HRP conjugate (Dako P0397) and a further 37° C. incubation for 1 hour. Plates were again washed and assayed at absorbance 490 nm following OPD substrate (Sigma) and acid stop solution treatment. Inhibition curves and IC50 values for the inhibition of myostatin activity are shown in FIG. 5 and Table 8 respectively.

[5] = biological target: T1, recombinant mature dimeric myostatin; assay: ELISA, myostatin coated at 10 ng/well
Protocol: 10B3 and 10B3 chimera (10B3C) bound myostatin (R&D Systems, 788-G8-010/CF) in a sandwich ELISA. Plates were coated with myostatin at 10 ng/well and blocked with Block solution (PBS, 0.1% TWEEN and 1% BSA). Following washing (PBS, 0.1% TWEEN), antibody was incubated at 37° C. for 2 hours over a dilution series and plates washed again prior to incubation at 37° C. for 1 hour with anti-mouse HRP or anti-human HRP (Dako, P0161 & Sigma, A-8400, respectively). Plates were again washed and OPD substrate (Sigma, P9187) added until colourometric reaction occurred and the reaction stopped by the addition of H₂SO₄.

[6] = biological target: T1, recombinant mature dimeric myostatin; assay: BIAcore T100 SPR, antibody captured on anti-mouse IgG, myostatin analyte, all curves 1:1 model
Protocol: The affinity of 10B3 mouse parental and 10B3C for recombinant myostatin was assessed by BIAcore™ (surface plasmon resonance) analysis. Analysis was carried out by the use of a capture surface: anti-mouse IgG was coupled to a C1 chip by primary amine coupling for 10B3 mouse parental; and a protein A surface was created on a C1 chip by primary amine coupling for 10B3 chimera.
After capture, recombinant myostatin was passed over the surface at 64 nM, 16 nM, 4 nM, 1 nM, 0.25 nM and 0.0625 nM, with a buffer injection (i.e. 0 nM) used for double referencing. There was a regeneration step between each analyte injection, after which the new antibody capture event occurred before the next injection of myostatin. The data was analysed using both the 1:1 model and the Bivalent model inherent to the T100 machines analysis software (see Table 6). Both capture surfaces could be regenerated using 100 mM phosphoric acid, the work was carried out using HBS-EP as the running buffer and using 25° C. as the analysis temperature.

[7] = biological target: T1, recombinant mature dimeric myostatin; assay: ActRIIb receptor neutralisation ELISA: antibody pre-incubated with 2 nM biotinylated myostatin, binding to coated ActRIIb
Protocol: as §1

IC50, myostatin responsive reporter gene assay (A204 cells, luciferase) [1]: 10000 pM
binding result [2]: no binding
Kd [3]: 205 pM
IC50 [4]: 161 pM
EC50 [5]: 0.069 µg/mL
Kd [6]: 1000 pM
IC50 [7]: 0.132 µg/mL
B1: mouse monoclonal antibody 10B3 (antibody, mouse IgG2a, V domains shown)
VH: EVQLQQSGPELVKPGASVKISCKASGYSFTGYFMHWVKQSHGNILDWIGNIYPYNGVSNYNQRFKAKATLTVDKSSSTAYMELRSLTSEDSAVYYCARRYYYGTGPADWYFDVWGTGTTVTVSS
VL: DIKMTQSPSSMYASLRERVTITCKASQDINSYLSWFQQKPGKSPKTLIYRANRLVDGVPSRFSGSGSGQDYSLTISSLEYEDMGIYYCLQCDEFPLTFGAGTKLELK
notes: Murine IgG2a/k; also called 10B3 mouse parental; parental 10B3
